The record followed here is paper PMC3037662 (The Journal of Biological Chemistry, 2010).

Assay [1] addresses MtrE, His-tagged (wild type) (N. gonorrhoeae FA19) (UniProt Q51006). The assay can be described thus: native MS.
Assay [2] addresses MtrE E434K, His-tagged (N. gonorrhoeae FA19) (UniProt Q51006). Description: ITC.
Assay [3] concerns the target MtrE, His-tagged (wild type) (N. gonorrhoeae FA19) (UniProt Q51006). The assay can be described thus: ITC. For orientation: Isothermal titration calorimetry measures the heat released or taken up as one component is titrated into another.
The target in a further assay is T1, MtrD, His-tagged (N. gonorrhoeae FA19, UniProt Q51073 1-1067).
T1 sequence (looked up): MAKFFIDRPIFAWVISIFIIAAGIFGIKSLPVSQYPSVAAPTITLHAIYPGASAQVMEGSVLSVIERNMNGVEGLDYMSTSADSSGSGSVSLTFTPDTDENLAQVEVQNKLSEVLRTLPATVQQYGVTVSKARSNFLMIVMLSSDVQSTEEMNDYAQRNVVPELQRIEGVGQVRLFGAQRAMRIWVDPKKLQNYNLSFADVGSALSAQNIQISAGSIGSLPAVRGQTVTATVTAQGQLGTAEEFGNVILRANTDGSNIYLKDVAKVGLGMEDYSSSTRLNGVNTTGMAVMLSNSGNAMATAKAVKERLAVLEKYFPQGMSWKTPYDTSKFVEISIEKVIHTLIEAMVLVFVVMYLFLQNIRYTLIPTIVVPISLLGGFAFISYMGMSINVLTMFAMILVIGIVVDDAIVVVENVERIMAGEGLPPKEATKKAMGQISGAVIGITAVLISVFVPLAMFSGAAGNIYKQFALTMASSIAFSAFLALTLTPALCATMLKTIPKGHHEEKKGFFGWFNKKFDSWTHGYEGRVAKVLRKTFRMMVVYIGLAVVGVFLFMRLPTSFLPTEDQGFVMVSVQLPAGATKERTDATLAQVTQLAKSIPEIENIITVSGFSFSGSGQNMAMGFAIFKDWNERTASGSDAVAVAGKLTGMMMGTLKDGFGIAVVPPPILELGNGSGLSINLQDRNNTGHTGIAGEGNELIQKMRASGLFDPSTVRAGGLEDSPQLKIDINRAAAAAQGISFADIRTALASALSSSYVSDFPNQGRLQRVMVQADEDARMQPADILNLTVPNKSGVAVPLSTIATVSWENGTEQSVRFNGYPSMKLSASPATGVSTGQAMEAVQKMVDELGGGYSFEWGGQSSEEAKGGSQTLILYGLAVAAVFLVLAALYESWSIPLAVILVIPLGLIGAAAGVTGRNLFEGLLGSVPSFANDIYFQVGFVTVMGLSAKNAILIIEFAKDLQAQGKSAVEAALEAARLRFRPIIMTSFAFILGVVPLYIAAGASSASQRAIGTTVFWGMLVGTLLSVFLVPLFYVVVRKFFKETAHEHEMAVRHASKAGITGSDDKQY
Description: ITC.

As usually defined, the stoichiometry N is the number of molecules, sites or subunits per partner or assembly. The molecule “MtrE, His-tagged (wild type) (from UniProt Q51006 1-467) (natural protein)” displayed a stoichiometry N in assay [1] of 3.

B1: MtrC α-helical coiled-coil hairpin domain (residues 103–183), His-tagged (domain or fragment)
chain: IDSSTYEAGLESARAQLATAQATLAKADADLARYKPLVSADAISKQEYDAAVTAKRSAEASVKAAQAAIKSAGINLNRSRI
As a reminder, the Kd is the equilibrium constant for the complex coming apart. A lower Kd goes with tighter binding. In assay [2], B1 registered a Ka of 8.2e+06 M⁻¹, a Kd of 130 nM and a dH of -4.12 kcal/mol. In assay [3], this molecule showed a Ka1 (site 1 of a two-site fit) of 460000 M⁻¹, a Ka2 (site 2 of a two-site fit) of 3200 M⁻¹, a Kd of the first (high-affinity) site of a two-site fit of 2200 nM and a dH1 (site 1 of a two-site fit) of -12 kcal/mol. In addition, in assay [3], the dH2 (site 2 of a two-site fit) is -62 kcal/mol and the dH of the first site of a two-site fit is -11 kcal/mol.

B2: NT-MtrC, N-terminal-truncated (Δ1–34) MtrC, His-tagged (domain or fragment, N. gonorrhoeae FA19, UniProt P43505 35-412, looked up)
chain: GQPAGREAPAPVVGVVTVHPQTVALTVELPGRLESLRTADVRAQVGGIIQKRLFQEGSYVRAGQPLYQIDSSTYEAGLESARAQLATAQATLAKADADLARYKPLVSADAISKQEYDAAVTAKRSAEASVKAAQAAIKSAGINLNRSRITAPISGFIGQSKVSEGTLLNAGDTTVLATIRQTNPMYVNVTQSASEVMKLRRQIAEGKLLAADGAIAVGIKFDDGTVYPEKGRLLFADPTVDESTGQITLRAAVSNDQNILMPGLYVRVLMDQVAADNAFIVPQQAVTRGAKDTVMIVNAQGGMEPREVTVAQQQGTNWIVTSGLKDGDKVVVEGISIAGMTGAKKVTPKEWAPSENQAAAPQAGVQTASEAKPASEAK
On to B2, for which, in assay [3], the Kd came to 9800 nM and the dH is -6.84 kcal/mol. In the assay with MtrD, His-tagged, the Ka amounted to 1.2e+06 M⁻¹; the affinity, expressed as Kd, was 800 ± 700 nM; the dH was 1.41 ± 0.318 kcal/mol.
